These results are taken from publication doi:10.1101/771139 (bioRxiv, 2020).

The data set concerns the molecule itself. The data set is described as follows: […].

B1: Bacillus subtilis SepF (natural protein)
chain: MSMKNKLKNFFSMEDEEYEYEYIETERESHEEHEQKEKPAYNGNKPAGKQNVVSLQSVQKSSKVVLSEPRVYAEAQEIADHLKNRRAVVVNLQRIQHDQAKRIVDFLSGTVYAIGGDIQRIGSDIFLCTPDNVDVSGTISELISEDEHQRW
As to B1, the binding result was “binds”.
